These results are taken from patent publication US20050147555A1.

Positions of bridges follow the written chain, without caps; N, C: chain ends. Groups on a side chain read outwards from the residue. *: point of attachment. Biotin = O=C1N[C@H]2[C@H](CS[C@H]2CCCCC(=O)*)N1; AEEA = NCCOCCOCC(=O)O

For the assay, the target named is KDR (VEGFR-2, Flk-1), full-length receptor on cells (human), P35968. The assay is described as follows: competition with 125I-VEGF on KDR-transfected 293H cells. The note with it: remark: other sources report otherwise.
KDR (VEGFR-2, Flk-1), full-length receptor on cells (human), P35968, sequence (P35968 20-1356): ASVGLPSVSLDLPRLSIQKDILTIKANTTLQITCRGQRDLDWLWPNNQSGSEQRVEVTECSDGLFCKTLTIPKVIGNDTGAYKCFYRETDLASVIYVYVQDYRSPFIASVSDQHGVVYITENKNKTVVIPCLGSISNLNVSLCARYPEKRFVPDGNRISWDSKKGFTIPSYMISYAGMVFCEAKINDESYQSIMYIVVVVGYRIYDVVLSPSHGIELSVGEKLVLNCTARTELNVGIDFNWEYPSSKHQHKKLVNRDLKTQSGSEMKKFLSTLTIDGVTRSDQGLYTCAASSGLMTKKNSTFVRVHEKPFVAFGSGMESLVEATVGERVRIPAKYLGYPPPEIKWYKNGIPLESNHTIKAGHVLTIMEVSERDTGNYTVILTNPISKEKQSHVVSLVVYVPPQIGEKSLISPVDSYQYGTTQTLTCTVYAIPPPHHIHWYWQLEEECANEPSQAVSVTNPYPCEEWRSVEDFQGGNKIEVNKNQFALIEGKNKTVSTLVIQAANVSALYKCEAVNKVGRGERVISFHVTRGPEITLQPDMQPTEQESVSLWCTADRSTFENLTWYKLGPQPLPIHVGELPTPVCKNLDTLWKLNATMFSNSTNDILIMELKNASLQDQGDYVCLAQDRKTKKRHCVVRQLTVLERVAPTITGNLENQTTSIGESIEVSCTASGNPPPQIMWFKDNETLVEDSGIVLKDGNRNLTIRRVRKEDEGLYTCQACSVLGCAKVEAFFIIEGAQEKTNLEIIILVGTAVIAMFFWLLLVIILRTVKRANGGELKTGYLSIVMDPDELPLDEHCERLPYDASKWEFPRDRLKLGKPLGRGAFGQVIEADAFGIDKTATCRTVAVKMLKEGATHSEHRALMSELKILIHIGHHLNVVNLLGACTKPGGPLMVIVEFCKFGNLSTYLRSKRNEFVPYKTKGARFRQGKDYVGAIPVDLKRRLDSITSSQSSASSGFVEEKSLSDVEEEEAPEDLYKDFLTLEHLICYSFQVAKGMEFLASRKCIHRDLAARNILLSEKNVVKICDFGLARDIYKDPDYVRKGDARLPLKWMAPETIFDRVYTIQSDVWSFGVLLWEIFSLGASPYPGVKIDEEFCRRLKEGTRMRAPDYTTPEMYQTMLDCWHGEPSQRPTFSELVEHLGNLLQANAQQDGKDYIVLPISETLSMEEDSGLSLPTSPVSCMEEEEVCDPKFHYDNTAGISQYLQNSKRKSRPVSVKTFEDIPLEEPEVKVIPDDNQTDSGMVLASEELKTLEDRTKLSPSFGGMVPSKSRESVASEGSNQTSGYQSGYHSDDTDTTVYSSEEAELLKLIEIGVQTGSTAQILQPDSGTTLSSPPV

B1: P5-XB (peptide)
peptide: Ac-AGPKWCEEDWYYCMITGTGGGK([AEEA-AEEA-Biotin])-NH2
modifications: disulfide 6-13
SMILES: CC[C@H](C)[C@H](NC(=O)[C@H](CCSC)NC(=O)[C@@H]1CSSC[C@H](NC(=O)[C@H](Cc2c[nH]c3ccccc23)NC(=O)[C@H](CCCCN)NC(=O)[C@@H]2CCCN2C(=O)CNC(=O)[C@H](C)NC(C)=O)C(=O)N[C@@H](CCC(=O)O)C(=O)N[C@@H](CCC(=O)O)C(=O)N[C@@H](CC(=O)O)C(=O)N[C@@H](Cc2c[nH]c3ccccc23)C(=O)N[C@@H](Cc2ccc(O)cc2)C(=O)N[C@@H](Cc2ccc(O)cc2)C(=O)N1)C(=O)N[C@H](C(=O)NCC(=O)N[C@H](C(=O)NCC(=O)NCC(=O)NCC(=O)N[C@@H](CCCCNC(=O)COCCOCCNC(=O)COCCOCCNC(=O)CCCC[C@@H]1SC[C@@H]2NC(=O)N[C@@H]21)C(N)=O)[C@@H](C)O)[C@@H](C)O
B1 showed a % inhibition of 125I-VEGF binding at 0.3 µM of 24.4% and a % inhibition of 125I-VEGF binding at 30 µM of 48%.
